{
  "source": "IntAct's records for PubMed 26836588",
  "parents": {"B1": {"name": "E3 ubiquitin-protein ligase TRIM22 (Homo sapiens), Q8IYM9 (parent)", "chain": "MDFSVKVDIEKEVTCPICLELLTEPLSLDCGHSFCQACITAKIKESVIISRGESSCPVCQTRFQPGNLRPNRHLANIVERVKEVKMSPQEGQKRDVCEHHGKKLQIFCKEDGKVICWVCELSQEHQGHQTFRINEVVKECQEKLQVALQRLIKEDQEAEKLEDDIRQERTAWKNYIQIERQKILKGFNEMRVILDNEEQRELQKLEEGEVNVLDNLAAATDQLVQQRQDASTLISDLQRRLRGSSVEMLQDVIDVMKRSESWTLKKPKSVSKKLKSVFRVPDLSGMLQVLKELTDVQYYWVDVMLNPGSATSNVAISVDQRQVKTVRTCTFKNSNPCDFSAFGVFGCQYFSSGKYYWEVDVSGKIAWILGVHSKISSLNKRKSSGFAFDPSVNYSKVYSRYRPQYGYWVIGLQNTCEYNAFEDSSSSDPKVLTLFMAVPPCRIGVFLDYEAGIVSFFNVTNHGALIYKFSGCRFSRPAYPYFNPWNCLVPMTVCPPSS"}},
  "data": [
    {"variants_of": "B1", "conditions": "with nod2_human NOD2, Q9HC29", "values": [
      {"variant": "S244L", "effect of a mutation on the interaction": "decreasing interaction strength"},
      {"variant": "R442C", "effect of a mutation on the interaction": "disrupting interaction strength"},
      {"variant": "R150T", "effect of a mutation on the interaction": "with no effect"},
      {"variant": "R321K", "effect of a mutation on the interaction": "decreasing interaction strength"}
    ]}
  ]
}
